Experimental data reported in publication PMC2956116 (Structure (London, England : 1993), 2010).

Biological target: the molecule itself
Experiment: cryo-EM structure

B1: Staphylococcus aureus pyruvate carboxylase (enzyme, S. aureus, UniProt A0A0H3JRU9 1-1150, looked up)
chain: MKQIKKLLVANRGEIAIRIFRAAAELDISTVAIYSNEDKSSLHRYKADESYLVGSDLGPAESYLNIERIIDVAKQANVDAIHPGYGFLSENEQFARRCAEEGIKFIGPHLEHLDMFGDKVKARTTAIKADLPVIPGTDGPIKSYELAKEFAEEAGFPLMIKATSGGGGKGMRIVREESELEDAFHRAKSEAEKSFGNSEVYIERYIDNPKHIEVQVIGDEHGNIVHLFERDCSVQRRHQKVVEVAPSVGLSPTLRQRICDAAIQLMENIKYVNAGTVEFLVSGDEFFFIEVNPRVQVEHTITEMVTGIDIVKTQILVAAGADLFGEEINMPQQKDITTLGYAIQCRITTEDPLNDFMPDTGTIIAYRSSGGFGVRLDAGDGFQGAEISPYYDSLLVKLSTHAISFKQAEEKMVRSLREMRIRGVKTNIPFLINVMKNKKFTSGDYTTKFIEETPELFDIQPSLDRGTKTLEYIGNVTINGFPNVEKRPKPDYELASIPTVSSSKIASFSGTKQLLDEVGPKGVAEWVKKQDDVLLTDTTFRDAHQSLLATRVRTKDMINIASKTADVFKDGFSLEMWGGATFDVAYNFLKENPWERLERLRKAIPNVLFQMLLRASNAVGYKNYPDNVIHKFVQESAKAGIDVFRIFDSLNWVDQMKVANEAVQEAGKISEGTICYTGDILNPERSNIYTLEYYVKLAKELEREGFHILAIKDMAGLLKPKAAYELIGELKSAVDLPIHLHTHDTSGNGLLTYKQAIDAGVDIIDTAVASMSGLTSQPSANSLYYALNGFPRHLRTDIEGMESLSHYWSTVRTYYSDFESDIKSPNTEIYQHEMPGGQYSNLSQQAKSLGLGERFDEVKDMYRRVNFLFGDIVKVTPSSKVVGDMALYMVQNDLDEQSVITDGYKLDFPESVVSFFKGEIGQPVNGFNKDLQAVILKGQEALTARPGEYLEPVDFEKVRELLEEEQQGPVTEQDIISYVLYPKVYEQYIQTRNQYGNLSLLDTPTFFFGMRNGETVEIEIDKGKRLIIKLETISEPDENGNRTIYYAMNGQARRIYIKDENVHTNANVKPKADKSNPSHIGAQMPGSVTEVKVSVGETVKANQPLLITEAMKMETTIQAPFDGVIKQVTVNNGDTIATGDLLIEIEKATD
modifications: biotinylated Lys1144
- stoichiometry N: 4
